Measurements: US20240409617A1 (Dana-Farber, published 2024)

Target: Human FcRn, biotinylated (human, UniProt P55899 24-297; P61769 21-119)

B1: Ab2-7 scFv-Fc (Fc fusion)
chain 1: QVTLKESGPTRVKPTQTLTLTCTFSGFSLSTTGVGVGWIRQPPGKALEWLALIYWNDDKRYSPSLKSRLTITKDTSKNQVVLTMTNMDPVDTATYYCARISGSGYFYPFDIWGQGTTVTVSS
chain 2: NFMLTQPHSVSESPGKTVTISCTRSSGSIASNYVQWYQQRPGSSPTTVIYEDNQRPSGVPDRFSGSIDSSSNSASLTISGLKAEDEADYYCQSYDSSSLWVFGGGTKLTVL
Kd: 11.7 nM
koff: 0.00198 s⁻¹
kon: 169000 M⁻¹ s⁻¹
